# Test results taken from article PMC4081100, “A DNA-binding-site landscape and regulatory network analysis for NAC transcription factors in Arabidopsis thaliana”.
# T1: GST-ANAC092(1-176) (Arabidopsis thaliana, UniProt Q9FKA0 1-176)
# T1 sequence: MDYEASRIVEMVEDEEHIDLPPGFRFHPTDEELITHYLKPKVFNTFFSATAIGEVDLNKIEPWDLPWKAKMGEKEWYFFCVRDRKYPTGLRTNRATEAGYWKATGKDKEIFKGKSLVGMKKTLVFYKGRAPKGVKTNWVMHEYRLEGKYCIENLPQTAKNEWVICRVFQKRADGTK
# How the values were obtained:
# GST-ANAC092(1-176) = molecular target: T1, GST-ANAC092(1-176); assay: EMSA; EMSA with 75 pM 32P-labelled DNA, binding buffer as in cited refs 7 and 36; oligos annealed in 20 mM Tris-HCl pH 8.0, 20 mM MgCl2; details: protein: recombinant, tags: GST, chain copies: 2, label: 32P
# GST-NTL6(1-168) = GST-NTL6(1-168) (Arabidopsis thaliana, UniProt Q9SCK6 1-168); assay: as above; details: protein: recombinant; tags: GST; chain copies: 2; label: 32P; 5' overhangs 4 nt (GATC) on both strands
# Chain of GST-NTL6(1-168) (Q9SCK6 1-168): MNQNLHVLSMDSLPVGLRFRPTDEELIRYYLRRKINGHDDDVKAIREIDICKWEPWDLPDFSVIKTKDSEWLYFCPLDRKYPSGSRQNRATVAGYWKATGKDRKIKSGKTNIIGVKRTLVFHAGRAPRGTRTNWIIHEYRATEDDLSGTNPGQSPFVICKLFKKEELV
Binder,binding result (GST-ANAC092(1-176); blunt),binding result (GST-ANAC092(1-176); 5' overhangs 4 nt (GATC) on both strands),binding result (GST-NTL6(1-168))
PalNACBS (dsDNA) DNA 1: CAGTCTTGCGTGTTGGAACACGCAACAGTC DNA 2: GACTGTTGCGTGTTCCAACACGCAAGACTG,binds,,
MYB90 WT promoter (dsDNA) DNA 1: GATCAGGTTCAGCTACGTCACCGATCCAGG DNA 2: GATCCCTGGATCGGTGACGTAGCTGAACCT,,binds,no binding
MYB90Synth (Synthetic promoter) (dsDNA) DNA 1: GATCAGGTTCAGCTAAGTAACCGATCCAGG DNA 2: GATCCCTGGATCGGTTACTTAGCTGAACCT,,,binds
